Like-named read-outs stand apart in the source and are kept apart here.
Target: avidin (Gallus gallus, UniProt P02701)
Settings: for A500 Measurement reagent 1: room temperature 5 minutes
Procedure: HABA (1 mg) and PBS (33 mL) were mixed to obtain a HABA solution. […] In the reagent, the concentration of avidin was 250 μg/mL, and the concentration of HABA was 30 μg/mL.
A reagent for measuring L-biotin (91.7 μL) was mixed with 0.1 M phosphate buffer (pH 7.5, 18.3 μL) or an L-biotin standard solution (18.3 μL), and the mixture was allowed to stand at room temperature for 5 minutes. Then, the absorbance at 500 nm (A500) of the reaction mixture was measured by spectrophotometer UV-2600 (Shimadzu Corporation). […] As a calibration curve, a straight line by a least squares method was used.
A sample containing the L-biotin-labeled BSA prepared in the above (3.2.1) was diluted 100-fold with 0.1 M phosphate buffer (pH 7.5). A reagent for measuring L-biotin (91.7 μL) and a sample containing diluted L-biotin-labeled BSA (18.3 μL) or a sample containing an L-biotin-labeled antibody (18.3 μL) were mixed, and the mixture was allowed to stand at room temperature for 5 minutes. Then, A500 of the reaction mixture was measured by UV-2600. The amount (μM) of L-biotin contained in each sample was determined from a calibration curve (regression equation) for the reagent for measuring L-biotin.

Sequence of avidin (P02701 25-152): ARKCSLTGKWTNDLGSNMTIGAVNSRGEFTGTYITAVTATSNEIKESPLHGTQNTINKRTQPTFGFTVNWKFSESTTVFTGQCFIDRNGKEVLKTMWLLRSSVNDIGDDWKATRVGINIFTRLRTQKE

Row | Biotin concentration (D-biotin in sample, Table 3) | D-Biotin (from calibration curve, BSA sample value multiplied by 100) | A500 (sample with Reagent 1 for measuring D-biotin, BSA sample diluted 100-fold) | Compound | A500 Measurement reagent 1 (D-biotin standard solution 25 μM) | A500 Measurement reagent 1 (D-biotin standard solution 50 μM)
1 | 1375.0 µM | 1375.0 µM | 0.257 | D-Bio-BSA: BSA labeled with D-biotin AC5-NHS | – | –
2 | – | – | – | O=C(O)CCCC[C@@H]1SC[C@@H]2NC(=O)N[C@@H]21 [D-Biotin, 3aS,4S,6aR-D-biotin] | 0.194 | 0.062

Source: patent publication US20230288426A1, “REAGENT FOR MEASURING L-BIOTIN, METHOD FOR MEASURING SAMPLE CONTAINING L-BIOTIN, METHOD FOR DETERMINING NUMBER OF LABELS OF L-BIOTIN-LABELED SUBSTANCE, AND METHOD FOR PRODUCING SOLID PHASE ON WHICH OPTICALLY ISOMERIC BIOTIN-BINDING SITE IS IMMOBILIZED” (SYSMEX CORPORATION, priority 2022, published 2023)
